In patent US20080167219:

Biological target: purified human factor X (UniProt P00742)
Chain of UniProt P00742 (P00742 whole entry, looked up): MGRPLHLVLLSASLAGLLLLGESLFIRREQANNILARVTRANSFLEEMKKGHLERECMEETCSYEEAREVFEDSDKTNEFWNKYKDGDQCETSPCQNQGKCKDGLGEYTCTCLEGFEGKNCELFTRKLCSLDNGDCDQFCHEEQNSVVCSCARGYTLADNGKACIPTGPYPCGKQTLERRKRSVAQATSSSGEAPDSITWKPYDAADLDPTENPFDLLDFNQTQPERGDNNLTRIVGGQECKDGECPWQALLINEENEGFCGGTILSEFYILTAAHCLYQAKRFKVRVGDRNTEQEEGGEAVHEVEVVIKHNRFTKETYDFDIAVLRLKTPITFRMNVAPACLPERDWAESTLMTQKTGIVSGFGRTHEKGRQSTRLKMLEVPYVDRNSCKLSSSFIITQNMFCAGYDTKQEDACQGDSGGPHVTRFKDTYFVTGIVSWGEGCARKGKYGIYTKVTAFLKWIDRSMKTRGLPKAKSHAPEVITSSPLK

Substance | KM for factor X, with 0.4 nM FVIIIa | KM for factor X, without FVIIIa | Kcat, with 0.4 nM FVIIIa | Kcat, without FVIIIa | Vmax of factor Xa generation, with 0.4 nM FVIIIa | Vmax of factor Xa generation, without FVIIIa | kcat/KM, with 0.4 nM FVIIIa | kcat/KM, without FVIIIa
recombinant human factor IX IX-1, single alanine replacement at residue 86 | 55.4 nM | 532 nM | 5.09 s⁻¹ | 0.000225 s⁻¹ | 15.1 nM FXa/min | 0.14 nM FXa/min | 9.3e+07 M⁻¹ s⁻¹ | 429 M⁻¹ s⁻¹
recombinant wild type human factor IX (IX-7) | 54 nM | 757 nM | 14.2 s⁻¹ | 0.000262 s⁻¹ | 27.8 nM FXa/min | 0.16 nM FXa/min | 2.64e+08 M⁻¹ s⁻¹ | 353 M⁻¹ s⁻¹
